Test: label from the status in PepcDB records

Sequence | protein production
MRYAAVLVEVGGTHRCLPLDSDGDLNIVASFDRRGKHIYTGNAKGKILVLDAETFEVVASFRIIVGTSSATAVKSIEFARRGDAFLINTSDRVIRVYDSKEIIILGKDGEPEPIQKLQDLVNKTTWKKCCFSGDGEYICAGSARQHALYIWEKSIGNLVKILHGTKGELHKQKRIRSFLERLAKDVPRIKNHLTLPNRFLFSSYRYYIRTI | failed
MRYADRVAGISWETIEEVRRRLKERPALHFIAGEFVPSESGETFPSLDPATNEVLGVAARGGEREVDRAAKAAHEAFQRWSRTKAKERKRYLLRIAELIEKHADELAVMECLDAGQVLRIVRAQVARAAENFAFYAEYAEHAMEDRTFPVDRDWLYYTVRVPAGPVGIITPWNAPLMLSTWRIAPALAFGNTVVLKPAEWSPFTATKLAEILKEADLPPGVFNLVQGFGEEAGAALVAHPLVPLLTLTGETETGKIVMRNAADHLKRLSPELGGKSPALVFADADLERALDAVVFQIFSFNGERCTASSRLLVEEKIFEDFVGKVVERARAIRVGHPLDPETEVGPLIHPEHLQRVLGYVEAGKREGARLLVGGERAKTSFRGEDLSRGNYLLPTVFVGENHMKIAQEEIFGPVLVAIPFKDEEEALRKANDTKYGLAAYVFTRDLERAHRLALELEAGMVYLNSHNVRHLPTPFGGVKGSGDRREGGTYALDFYTDLKTIALPLRPPHVPKFGK | not failed
MRYFSTDSPEVKTIVAQDSRLFQFIEIAGEVQLPTKPNPFQSLVSSIVEQQLSIKAASAIYGRVEQLVGGALEKPEQLYRVSDEALRQAGVSKRKIEYIRHVCEHVESGRLDFTELEGAEATTVIEKLTAIKGIGQWTAEMFMMFSLGRLDVLSVGDVGLQRGAKWLYGNGEGDGKKLLIYHGKAWAPYETVACLYLWKAAGTFAEEYRSLEELLHHGNQC | not failed
MRYGFMKVAAAVPFVKVADCEYNIERIDRMVHEADAKGVEIMTFPELSITGYSCGDLFFQPFLQERANEALCRLVEQTANTTVMVIVGMPLRVEEKLFNSAVVFQQGKILGAIPKTYLPNYREFQEARWFSPAHTLQYSTISIGQHSVPIGRNLIFKCGTVGVGIEICEDMWTPFTPGTRLCLYGAEVIFNLSSSNENAGKHSYLRSLISGLSSQGICAYVYASSGYGESSTDIVFTGKAFIAEAGEIVEEMERFRYEERMIISDIDVSRIQTERLINSSFKAAVTFHTHDEKFNQLPFKLRSRQESLPMTRRVDRNPFMPEDKDRKERSREMINIQVCGLMQRLLHMGAEHAVIGISGGLDSALALIVCAQAFDRLDLPRKNIIAVTMPGFGTSDRTYRNAFALMEAIGVTIKEIDIKEACLRHFEAIGHNPEVQDTTFENTQARERTQILMNLANIYNAPVIGTGDLSELALGWVTYNGDHMSMYAVNAGIAKTTVQILVDHIAHSGWLDEAASAVLLDIVRTPISPELKPVGQDGNISQKTEDLVGPYELHDFFIYHFLHNEYKPSKIYYLAGVAFKGIYTKAEIKKWMMVFFRRFFAQQYKRNCMPDGPKVSCISLSPRGAWRMASDASSALWLDEIAKFETDLEHHHHHH | failed
MRYHGGLLLGAFDDDGKIIGMSFGYPGFRNGKLYLYSHMAGVVENKKYSNVGYSLKMKQRDLAASMGYDLIAWTFDPFNPLNAYFNISKLGAITRTYIKNFYGVMNDGINRGMRTDRVVAEWWI | failed
MRYIKFFKELNNKNVNLVGGKNASIGEMFQELVPIGIKVPDGFAITSEAYWYLLEQGGAKQKIIELLENVDATEIDVLKIRSKQIRELIFGTPFPSDLRDEIFQAYEILSQQYHMKEADVAVRSSATAEDLPDASFAGQQDTYLNIKGKTELIHYIKSCLASLFTDRAISYRASRGFDHLKVALSVGVQKMVRADKGSAGVMFSIDTETGFKDAVFITSAWGLGENVVGGTINPDEFYVFKPTLEQNKRPIIKRQLGNKTQKMVYAPRGSEHPTRNIKTTKKEWQSFSLSDEDVLILAKYAIEIEKHYSKEAKQYRPMDIEWAKDGESGEIFIVQARPETVQSQKSKEESQVFEKFKFKNPNEKKEIILQGRAIGSKIGSGKVRIINDLEHMNSFKEGEILVTDNTDPDWEPCMKKASAVITNRGGRTCHAAIVAREIGVPAIVGVSGATDSLYTGMEITVSCAEGEEGYVYAGIYEHEIERVELSNMQETQTKIYINIGNPEKAFGFSQLPNHGVGLARMEMIILNQIKAHPLALVDLHHKKSVKEKNEIENLMAGYANPKDFFVKKIAEGIGMISAAFYPKPVIVRTSDFKSNEYMRMLGGSSYEPNEENPMLGYRGASRYYSESYNEAFSWECEALALVREEMGLTNMKVMIPFLRTIEEGKKVLEILRKNNLESGKNGLEIYIMCELPVNVILADDFLSLFDGFSIGSNDLTQLTLGVDRDSELVSHVFDERNEAMLKMFKKAIEACKRHNKYCGICGQAPSDYPEVTEFLVKEGITSISLNPDSVIPTWNAVAKLEKELKEHGLTEH | failed
MRYLADHDDLTGLHNRRALLQHLDQRLAPGQPGPVAALFLDLDRLKAINDYLGHAAGDQFIHVFAQRIGDALVGESLIARLGGDEFVLIPASPMSADAAQPLAERLRDQLKDHVAIGGEVLTRTVSIGVASGTPGQHTPSDLLRRADQAALAAKHAGGDSVAIFTLEHHHHHH | failed
MRYLSKDILEEVITQRPSDSYKSNFGRVVLIGGNRQYGGAIIMSTEACINSGAGLTTVITDVKNHGPLHARCPEAMVVGFEETVLLTNVVEQADVILIGPGLGLDATAQQILKMVLAQHQKQQWLIIDGSAITLFSQGNFSLTYPEKVVFTPHQMEWQRLSHLPIEQQTLANNQRQQAKLGSTIVLKSHRTTIFHAGEPFQNTGGNPGMATGGTGDTLAGIIAGFLAQFKPTIETIAGAVYLHSLIGDDLAKTDYVVLPTKISQALPTYMKKYAQPHTAPDSELLEQKRSR | not failed
MRYRDNLKRSLKQAALAAGLLMTMSCAVRATPQDDLRSAVEYNRPALVQKLVAQGVDPNLDTRDGTPLLVDALKDKNIDVAEALIRAKGLDFERANAAGENALMMAAYQGLLPLVRLMVETYDVEVNKTGWTALHYAATNGHDAIVQYLLDHGAYIDAESPNGTTPLMMATMGGQITTVKLLLDEGADMNLRNQQKMDVIDFAKRYHQDEIAAGLESRRRKLAEPGAQPVPARQPAAPAGMRPAAPVVPDVPAPMPAPRAPESAIDRDATSGLPGSLSDQKTVPPPDLRGN | failed
MSAATKQQCCARAEVPVRNLHSCDVFGLPAGGAFGRPRRDKENDMSLGTIILIILIIALLGGFTGVGGGPFYGTGYYGGGGLGLVIVILLILLLLGKI | failed
MSAATPPFRDPQLPFAKRVDDLMSRLTLDEKTAFLHQFAPAVERLGIAPFRTGQEALHGVAWMGPATVFPQAVGLGATWNEELVRRVGEAVSKEARAMRARDDRVGLNVWSPTVNLLRHPLWGRNEEGYSEDPRLTSAVATAYTRGLRGDHPAYWRTAPVLKHWLAHNNETDRDTSSSSVRPRVLHEYDLRAFRDTVEAGAVAGVMPAYNLVNGRPNHLSPHLGRHLRTWTQEDLLVCSDAGAPSNLVDSEHYFDTHEEATAAALRAGVDSFTDHGTDSSKIVARVRGALEAGLLTEADVDAAVRRQLSVRFRLGEFDPENDPYSGAADTGADFDTPEHRALARDAAEQAVVLLKNDGVLPLAPETRVAVVGLLADECKLDWYSGTLIHRSTPLEGLYERFGADRVSFAEGVDRVRLRTADGRFLHVLPADDASAEAPGTEGALDPALLAGRTDLPPLTTDAVGTELALIDWGEGVLTLRASDGRYLSVAEDGFVRASADQPGGWVVQETFRLEPHDDGHLLRHTGTGRPVQVAADGVKVAAPDAAAGAAAGGAGSADAEVFELVVVERGEDAVTRVAAGADVVVVVAGNDPHINGRETEDRTTLRLPAQQERLLRAARAANPATVLALVSAYPYAVGVETLPAVLWTAHGGQAAGTALARILAGDVSPAGRLPQTWYSDDADLPGLLDYDVIGGRQTYLYFEGTPLFPFGHGLSYASFGYGDLTAQVRDGAVAVSFTVTNTGEVSADEVAQLYVRAEAPSVPRPRRELLAHRRLTLAPGASDRVSFEVPLSALAFWDVAHDRWRLEPGPYALLVGASSEDVRLTTTVTIDGEPAVPRPVGARGVQAVDFDEQSGTEIVDRTKAAGDAVAAVSGRTGELLYRDCDFGAGAAGVTVSVAGAGSVEVALDGGPAVAVLSPDAPTAGPYDYVELASAFTAEGVHDLRVTLRGALRLAHVGFSG | failed
MSADIVFDRGSPSDIDEIKTFTSNTWKVGYYTDLYSKLADTGTMDDYVDKVIERWVNDGSVYVLRVSGRPVATIHMEKLPDGSVMLGGLRVHPEYRGSRLGMSIMQETIQFLRGKTERLRSAVYSWNEPSLRLVHRLGFHQVEEYPIYTFQGGSTAVPALKPVNERYAGRWRCFFIDWKYMCSDDPDIIHEEYSNNLIVDGSTFVYFDIYEGGIDLFVNDSDDASSFIEKYRSMNGRITFYVRKALANGLPYVPASSLTVWEYRY | not failed
MSADSNSTDADPTAHWSFETKQIHAGQHPDPTTNARALPIYATTSYTFDDTAHAAALFGLEIPGNIYTRIGNPTTDVVEQRIAALEGGVAALFLSSGQAAETFAILNLAGAGDHIVSSPRLYGGTYNLFHYSLAKLGIEVSFVDDPDDLDTWQAAVRPNTKAFFAETISNPQIDLLDTPAVSEVAHRNGVPLIVDNTIATPYLIQPLAQGADIVVHSATKYLGGHGAAIAGVIVDGGNFDWTQGRFPGFTTPDPSYHGVVFAELGPPAFALKARVQLLRDYGSAASPFNAFLVAQGLETLSLRIERHVANAQRVAEFLAARDDVLSVNYAGLPSSPWHERAKRLAPKGTGAVLSFELAGGIEAGKAFVNALKLHSHVANIGDVRSLVIHPASTTHAQLSPAEQLATGVSPGLVRLAVGIEGIDDILADLELGFAAARRFSADPQSVAAF | not failed
MSAEKSISSDHVPLSDPALKTINRNAGRNLNHIAFISTLGGLLFGVDTGVINGAIGYMATPAELNLSPNNEGLVTSGITLGAAFGAVFAGHLSDRIGRKRLLKYLALLFFVCTLACSLAPNALFMIISRVLLGLAVGGASVIVPTYLSEISTPEIRGRLVTQNELMIVTGQLLAFIVNAILGNWFGHISNIWRYMIGFGMIPAVALFFGMMVVPESPRWLVMVNQLDNAFDSLRKIRSHPETCNEEITQIQDTLNQESEIKQATFKDLSTPWIRRLVFIGIGLGVMQQFIGINIMMYYGTTILTNSGFAHNAALIANIGNGLVSVIATFIGMSIMNRVNRRSMLIAGIIGTTTSLILIVGVSAFLSQSPLLPILVVLCTMMFLGFFQGFISPLVWLLLSEIFPQNLRGLGMGVSTFFLWFANFLVGYFFPILLSAVGMTWTFLIFVFFNILSFIFAYKYAPETRGKSLELIQMEFKYGDTTGINPEDK | failed
MSAEKSSADTAKKTLTIYSTMSTDSERDTFRKLAAAFEKEHSDIHVSLHFPGNDYENMMRVRMAANDLPDLFDTHGWGKIRYGEYTADLRDMKWTQDLDPNLNSILKNKSGKVYAYPINQAKDGLAYNRNILDRYGIAPPETMDDFIKALRTIKEKSKGSIVPFWFAGYDKSSFAQYYDQFATPLLITDPAHNEKKQLINGTFQWSKFTYLSEILKQMQKEKLINIDAVTAKKSQLIELMAQNKIAFTMQGGTLGQDVAQINPNVKVGIIPTPAIHPGDDPIWIGGERYTLAAWKDSPQLKEAKDFIAFMARPANAKQMAEATSLPSGLTNVKADIFYANDYEYYQDVKVEPYFDRLYLPNGMWDVLGTVGQELAADILAPQDISQKLGREYKRLREQSETQGAENNELEHHHHHH | not failed
MSAELTRARQQLSQIRGYLRQGKVMPAAQAFQSALVIVLKSPLMRAEREEFERMFADAAHHLNNDAGLRALFPLKIEYLPGSEKELLDIIRELVTAVNNAAVTEAQEQLAALDARKAAGLEQGQAHLDAQEFDAAAAVFRQLSHEFKDDPQLRGEIGERFLKAGRYEEAFDYLAQALDLSPESIHLYNRIGIALRRLGRFETGEKYYLRALQYAGHDPNLLFNLGRLYVDWQRWDKVAKAAAAALRVNPAFDEARKMLEFAERKLQR | failed
